Assay results published in paper PMC10397247.

Assays:
[1] = target: T1, Core_NINI-es_KEKK; assay: two-hybrid library CCmax; settings: mean of both orientations;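 further: natural log of median RNA to DNA barcode read ratio; higher means stronger binding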
T1 chain: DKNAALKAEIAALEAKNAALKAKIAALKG

[2] = target: T2, Core_INNN-es_KEKK; assay: two-hybrid library CCmax; settings: mean of both orientations;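 further: natural log of median RNA to DNA barcode read ratio; higher means stronger binding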
T2 chain: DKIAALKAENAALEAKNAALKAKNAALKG

[3] = target: T3, 4H1081-bA; assay: two-hybrid library CCNG1; settings: mean of both orientations;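 further: natural log of median RNA to DNA barcode read ratio; higher means stronger binding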
T3 chain: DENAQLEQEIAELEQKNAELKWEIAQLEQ

[4] = target: T4, 4H112-bA; assay: two-hybrid library CCNG1;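 further: natural log of median RNA to DNA barcode read ratio; higher means stronger binding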
T4 chain: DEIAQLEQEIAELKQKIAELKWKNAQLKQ

[5] = target: T5, 4H1158-bA; assay: two-hybrid library CCNG1
T5 chain: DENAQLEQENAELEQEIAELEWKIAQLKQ

[6] = target: T6, 4H118-bA; assay: two-hybrid library CCNG1
T6 chain: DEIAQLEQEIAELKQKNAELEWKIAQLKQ

[7] = target: T7, 4H1348-bA; assay: two-hybrid library CCNG1
T7 chain: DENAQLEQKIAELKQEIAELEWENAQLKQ

[8] = target: T8, 4H1373-bA; assay: two-hybrid library CCNG1
T8 chain: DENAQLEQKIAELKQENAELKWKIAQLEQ

[9] = target: T9, 4H1544-bA; assay: two-hybrid library CCNG1
T9 chain: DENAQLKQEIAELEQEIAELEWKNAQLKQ

[10] = target: T10, 4H170-bA; assay: two-hybrid library CCNG1
T10 chain: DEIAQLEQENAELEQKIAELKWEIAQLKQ

[11] = target: T11, 4H1710-bA; assay: two-hybrid library CCNG1
T11 chain: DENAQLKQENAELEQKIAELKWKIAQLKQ

[12] = target: T12, 4H1831-bA; assay: two-hybrid library CCNG1
T12 chain: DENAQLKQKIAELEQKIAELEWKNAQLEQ

[13] = target: T13, 4H1899-bA; assay: two-hybrid library CCNG1
T13 chain: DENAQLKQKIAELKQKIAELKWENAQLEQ

[14] = target: T14, 4H1985-bA; assay: two-hybrid library CCNG1
T14 chain: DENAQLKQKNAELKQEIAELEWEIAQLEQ

[15] = target: T15, 4H2586-bA; assay: two-hybrid library CCNG1
T15 chain: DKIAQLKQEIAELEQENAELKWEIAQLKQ

[16] = target: T16, 4H2627-bA; assay: two-hybrid library CCNG1
T16 chain: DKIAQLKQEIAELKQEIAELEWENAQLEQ

[17] = target: T17, 4H2673-bA; assay: two-hybrid library CCNG1
T17 chain: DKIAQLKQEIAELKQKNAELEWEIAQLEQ

[18] = target: T18, 4H2702-bA; assay: two-hybrid library CCNG1
T18 chain: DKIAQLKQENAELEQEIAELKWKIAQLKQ

[19] = target: T19, 4H3010-bA; assay: two-hybrid library CCNG1
T19 chain: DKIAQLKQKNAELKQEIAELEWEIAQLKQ

[20] = target: T20, 4H3112-bA; assay: two-hybrid library CCNG1
T20 chain: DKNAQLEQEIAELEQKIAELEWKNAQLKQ

[21] = target: T21, 4H3162-bA; assay: two-hybrid library CCNG1
T21 chain: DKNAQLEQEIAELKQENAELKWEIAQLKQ

[22] = target: T22, 4H3175-bA; assay: two-hybrid library CCNG1
T22 chain: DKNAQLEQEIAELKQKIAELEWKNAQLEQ

[23] = target: T23, 4H3277-bA; assay: two-hybrid library CCNG1
T23 chain: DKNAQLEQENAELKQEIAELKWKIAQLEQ

[24] = target: T24, 4H3298-bA; assay: two-hybrid library CCNG1
T24 chain: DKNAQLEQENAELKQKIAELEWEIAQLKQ

[25] = target: T25, 4H3427-bA; assay: two-hybrid library CCNG1
T25 chain: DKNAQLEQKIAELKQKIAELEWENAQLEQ

[26] = target: T26, 4H346-bA; assay: two-hybrid library CCNG1
T26 chain: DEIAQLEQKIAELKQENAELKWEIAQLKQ

[27] = target: T27, 4H3462-bA; assay: two-hybrid library CCNG1
T27 chain: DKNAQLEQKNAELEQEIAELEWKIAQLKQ

[28] = target: T28, 4H3497-bA; assay: two-hybrid library CCNG1
T28 chain: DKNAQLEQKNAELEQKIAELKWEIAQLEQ

[29] = target: T29, 4H3613-bA; assay: two-hybrid library CCNG1
T29 chain: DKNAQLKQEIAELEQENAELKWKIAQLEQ

[30] = target: T30, 4H3628-bA; assay: two-hybrid library CCNG1
T30 chain: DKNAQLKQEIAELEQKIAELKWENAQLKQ

[31] = target: T31, 4H3926-bA; assay: two-hybrid library CCNG1; settings: mean of both orientations
T31 chain: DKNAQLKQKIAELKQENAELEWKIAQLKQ

[32] = target: T32, 4H4073-bA; assay: two-hybrid library CCNG1
T32 chain: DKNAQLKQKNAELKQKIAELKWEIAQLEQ

[33] = target: T33, 4H457-bA; assay: two-hybrid library CCNG1
T33 chain: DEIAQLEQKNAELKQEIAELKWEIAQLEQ

[34] = target: T34, 4H575-bA; assay: two-hybrid library CCNG1
T34 chain: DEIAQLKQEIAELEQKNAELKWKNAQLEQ

[35] = target: T35, 4H591-bA; assay: two-hybrid library CCNG1
T35 chain: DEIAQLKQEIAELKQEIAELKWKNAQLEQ

[36] = target: T36, 4H626-bA; assay: two-hybrid library CCNG1
T36 chain: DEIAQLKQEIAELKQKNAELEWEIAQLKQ

[37] = target: T37, 4H683-bA; assay: two-hybrid library CCNG1
T37 chain: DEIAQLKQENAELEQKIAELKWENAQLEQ

[38] = target: T38, 4H754-bA; assay: two-hybrid library CCNG1
T38 chain: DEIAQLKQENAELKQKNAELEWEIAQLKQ

[39] = target: T39, 4H780-bA; assay: two-hybrid library CCNG1
T39 chain: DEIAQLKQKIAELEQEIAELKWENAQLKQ

[40] = target: T40, 4H797-bA; assay: two-hybrid library CCNG1
T40 chain: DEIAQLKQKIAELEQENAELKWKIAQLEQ

[41] = target: T41, 4H855-bA; assay: two-hybrid library CCNG1
T41 chain: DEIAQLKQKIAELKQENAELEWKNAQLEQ

[42] = target: T42, 4H906-bA; assay: two-hybrid library CCNG1
T42 chain: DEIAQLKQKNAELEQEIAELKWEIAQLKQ

[43] = target: T43, 4H918-bA; assay: two-hybrid library CCNG1
T43 chain: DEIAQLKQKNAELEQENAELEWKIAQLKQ

[44] = target: T44, 4H953-bA; assay: two-hybrid library CCNG1
T44 chain: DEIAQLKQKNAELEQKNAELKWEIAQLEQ

[45] = target: T45, 4H968-bA; assay: two-hybrid library CCNG1
T45 chain: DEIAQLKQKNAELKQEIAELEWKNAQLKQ

[46] = target: T46, O6; assay: two-hybrid library CCNG1
T46 chain: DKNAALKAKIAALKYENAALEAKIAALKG

[47] = target: T47, P8SHb; assay: two-hybrid library CCNG1
T47 chain: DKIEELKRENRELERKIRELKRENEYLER

[48] = target: T48, P10; assay: two-hybrid library CC1
T48 chain: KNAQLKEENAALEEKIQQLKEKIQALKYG

[49] = target: T49, P11; assay: two-hybrid library CC1; settings: mean of both orientations
T49 chain: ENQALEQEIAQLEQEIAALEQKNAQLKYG

[50] = target: T50, P12; assay: two-hybrid library CC1; settings: mean of both orientations
T50 chain: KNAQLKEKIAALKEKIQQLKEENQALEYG

[51] = target: T51, P3; assay: two-hybrid library CC1; settings: mean of both orientations
T51 chain: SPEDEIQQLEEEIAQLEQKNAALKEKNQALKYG

[52] = target: T52, P3mS; assay: two-hybrid library CC1; settings: mean of both orientations
T52 chain: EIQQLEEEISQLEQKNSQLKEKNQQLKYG

[53] = target: T53, P4; assay: two-hybrid library CC1; settings: mean of both orientations
T53 chain: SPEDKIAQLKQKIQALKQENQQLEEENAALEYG

[54] = target: T54, P4mS; assay: two-hybrid library CC1; settings: mean of both orientations
T54 chain: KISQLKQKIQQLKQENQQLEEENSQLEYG

[55] = target: T55, P5SC1; assay: two-hybrid library CC1; settings: mean of both orientations
T55 chain: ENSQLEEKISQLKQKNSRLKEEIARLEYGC

[56] = target: T56, P5SC2; assay: two-hybrid library CC1; settings: mean of both orientations
T56 chain: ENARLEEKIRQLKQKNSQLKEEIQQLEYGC

[57] = target: T57, P5; assay: two-hybrid library CC1; settings: mean of both orientations
T57 chain: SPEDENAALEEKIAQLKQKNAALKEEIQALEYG

[58] = target: T58, P5mS; assay: two-hybrid library CC1; settings: mean of both orientations
T58 chain: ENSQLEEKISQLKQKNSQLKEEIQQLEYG

[59] = target: T59, P6SC1; assay: two-hybrid library CC1; settings: mean of both orientations
T59 chain: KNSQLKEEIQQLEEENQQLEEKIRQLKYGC

[60] = target: T60, P6SC2; assay: two-hybrid library CC1; settings: mean of both orientations
T60 chain: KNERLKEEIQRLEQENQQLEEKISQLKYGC

[61] = target: T61, P6; assay: two-hybrid library CC1; settings: mean of both orientations
T61 chain: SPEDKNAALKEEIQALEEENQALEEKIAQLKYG

[62] = target: T62, P6mS; assay: two-hybrid library CC1; settings: mean of both orientations
T62 chain: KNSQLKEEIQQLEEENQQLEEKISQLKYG

[63] = target: T63, P7; assay: two-hybrid library CC1; settings: mean of both orientations
T63 chain: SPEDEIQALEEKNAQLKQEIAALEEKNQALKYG

[64] = target: T64, P7mS; assay: two-hybrid library CC1; settings: mean of both orientations
T64 chain: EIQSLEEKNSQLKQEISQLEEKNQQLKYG

[65] = target: T65, P8; assay: two-hybrid library CC1; settings: mean of both orientations
T65 chain: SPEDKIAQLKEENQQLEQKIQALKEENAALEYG

[66] = target: T66, P8mS; assay: two-hybrid library CC1; settings: mean of both orientations
T66 chain: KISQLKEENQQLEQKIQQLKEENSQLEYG

[67] = target: T67, P9; assay: two-hybrid library CC1; settings: mean of both orientations
T67 chain: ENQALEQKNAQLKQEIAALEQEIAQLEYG

B1: Core_NINI-es_EKEE (peptide)
chain: DENAALEAKIAALKAENAALEAEIAALEG
[1]
  interaction score: 2.15

B2: Core_INNN-es_EKEE (peptide)
chain: DEIAALEAKNAALKAENAALEAENAALEG
[2]
  interaction score: 1.91

B3: 4H1081-bA (peptide)
chain: DENAQLEQEIAELEQKNAELKWEIAQLEQ
[3]
  interaction score: -1.09
[4]
  interaction score: -0.18
[5]
  interaction score: -1.28
[6]
  interaction score: -0.618
[7]
  interaction score: -0.834
[8]
  interaction score: -0.306
[9]
  interaction score: -0.272
[10]
  interaction score: -0.98
[11]
  interaction score: -1.02
[12]
  interaction score: -0.839
[13]
  interaction score: -0.763
[14]
  interaction score: -0.96
[15]
  interaction score: -1
[16]
  interaction score: -0.693
[17]
  interaction score: -0.717
[18]
  interaction score: 0.457
[19]
  interaction score: -0.178
[20]
  interaction score: -0.897
[21]
  interaction score: -0.581
[22]
  interaction score: -1.47
[23]
  interaction score: -0.575
[24]
  interaction score: -0.916
[25]
  interaction score: -0.645
[26]
  interaction score: -0.753
[27]
  interaction score: -0.859
[28]
  interaction score: -1.1
[29]
  interaction score: -0.495
[30]
  interaction score: -1.07
[31]
  interaction score: 2.57
[32]
  interaction score: -0.497
[33]
  interaction score: -0.799
[34]
  interaction score: -1.21
[35]
  interaction score: -0.855
[36]
  interaction score: -0.689
[37]
  interaction score: -0.217
[38]
  interaction score: -0.461
[39]
  interaction score: -0.865
[40]
  interaction score: -1.17
[41]
  interaction score: -0.154
[42]
  interaction score: -0.875
[43]
  interaction score: -0.671
[44]
  interaction score: -1.23
[45]
  interaction score: -1.8
[46]
  interaction score: 1.04
[47]
  interaction score: -1.25

B4: P10 (peptide)
chain: KNAQLKEENAALEEKIQQLKEKIQALKYG
[48]
  interaction score: -2.46
[49]
  interaction score: -0.938
[50]
  interaction score: -2.49
[51]
  interaction score: -1.63
[52]
  interaction score: -2.74
[53]
  interaction score: -2.91
[54]
  interaction score: -2.94
[55]
  interaction score: -2.65
[56]
  interaction score: -2.77
[57]
  interaction score: -2.96
[58]
  interaction score: -2.88
[59]
  interaction score: -2.61
[60]
  interaction score: -2.28
[61]
  interaction score: -1.77
[62]
  interaction score: -2.78
[63]
  interaction score: -0.907
[64]
  interaction score: -2.22
[65]
  interaction score: -2.83
[66]
  interaction score: -2.75
[67]
  interaction score: 0.493
